{"source": "paper PMC3135484", "about": "(Molecular Biology of the Cell, 2011)", "binders": {"B1": {"name": "GST-tagged Vam7 SNARE domain (190-316) (domain or fragment)", "chain": "PSTEVTRRAALLRSLLKECDDIGTANIAQDRGRLLGVATSDNSSTTEVQGRTNNDLQQGQMQMVRDQEQELVALHRIIQAQRGLALEMNEELQTQNELLTALEDDVDNTGRRLQIANKKARHFNNSA"}}, "assay_in_all_cases": "pull-down", "key": {"[1]": {"molecular_target": "T1, Vps16 (individual HOPS subunit, TAP-purified) (yeast (S. cerevisiae), UniProt Q03308 1-798)", "T1 sequence": "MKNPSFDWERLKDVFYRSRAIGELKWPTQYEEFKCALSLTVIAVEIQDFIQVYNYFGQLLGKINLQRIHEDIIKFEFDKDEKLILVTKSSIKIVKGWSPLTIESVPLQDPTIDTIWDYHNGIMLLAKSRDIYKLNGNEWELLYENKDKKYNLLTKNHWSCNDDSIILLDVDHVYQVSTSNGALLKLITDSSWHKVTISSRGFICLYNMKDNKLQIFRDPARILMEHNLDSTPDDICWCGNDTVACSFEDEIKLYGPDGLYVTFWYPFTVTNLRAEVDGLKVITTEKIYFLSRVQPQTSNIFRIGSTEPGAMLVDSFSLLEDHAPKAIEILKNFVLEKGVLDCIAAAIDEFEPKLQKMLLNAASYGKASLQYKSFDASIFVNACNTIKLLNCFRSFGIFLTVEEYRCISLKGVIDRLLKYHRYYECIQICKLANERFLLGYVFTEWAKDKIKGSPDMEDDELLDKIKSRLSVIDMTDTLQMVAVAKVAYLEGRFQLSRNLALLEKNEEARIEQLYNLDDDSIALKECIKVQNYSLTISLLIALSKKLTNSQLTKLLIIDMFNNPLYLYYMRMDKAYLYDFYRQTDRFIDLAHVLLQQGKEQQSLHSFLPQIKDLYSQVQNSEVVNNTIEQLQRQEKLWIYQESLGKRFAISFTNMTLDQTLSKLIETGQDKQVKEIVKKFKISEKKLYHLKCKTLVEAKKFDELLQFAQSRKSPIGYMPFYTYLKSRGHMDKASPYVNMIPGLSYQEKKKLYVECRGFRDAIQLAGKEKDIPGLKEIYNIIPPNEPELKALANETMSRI"}, "[2]": {"molecular_target": "T2, Vps18 (individual HOPS subunit, TAP-purified) (yeast (S. cerevisiae), UniProt P27801 1-918)", "T2 sequence": "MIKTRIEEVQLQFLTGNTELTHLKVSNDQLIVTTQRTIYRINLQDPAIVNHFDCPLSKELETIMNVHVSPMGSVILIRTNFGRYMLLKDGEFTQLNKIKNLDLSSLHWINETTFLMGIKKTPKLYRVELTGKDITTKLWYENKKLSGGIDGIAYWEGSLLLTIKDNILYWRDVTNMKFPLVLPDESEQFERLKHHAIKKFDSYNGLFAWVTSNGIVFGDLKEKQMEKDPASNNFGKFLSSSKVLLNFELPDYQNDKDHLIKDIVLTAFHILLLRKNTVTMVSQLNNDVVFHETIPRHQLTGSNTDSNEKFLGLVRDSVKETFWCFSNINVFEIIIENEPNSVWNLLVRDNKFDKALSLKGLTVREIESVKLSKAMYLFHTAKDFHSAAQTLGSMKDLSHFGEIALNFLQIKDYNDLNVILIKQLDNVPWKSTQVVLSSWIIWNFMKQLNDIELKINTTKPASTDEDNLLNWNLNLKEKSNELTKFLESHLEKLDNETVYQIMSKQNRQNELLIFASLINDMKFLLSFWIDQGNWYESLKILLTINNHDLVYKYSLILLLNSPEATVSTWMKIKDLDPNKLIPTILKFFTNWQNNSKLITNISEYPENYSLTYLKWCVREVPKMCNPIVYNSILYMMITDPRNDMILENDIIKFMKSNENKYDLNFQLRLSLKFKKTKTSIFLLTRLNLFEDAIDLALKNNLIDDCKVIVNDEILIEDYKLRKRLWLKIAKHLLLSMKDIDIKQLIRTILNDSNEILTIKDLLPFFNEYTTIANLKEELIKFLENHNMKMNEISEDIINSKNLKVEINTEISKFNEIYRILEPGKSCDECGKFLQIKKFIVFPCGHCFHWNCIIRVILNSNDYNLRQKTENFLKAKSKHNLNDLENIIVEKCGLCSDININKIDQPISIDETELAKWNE"}, "[3]": {"molecular_target": "HOPS (homotypic fusion and protein sorting) complex (yeast (S. cerevisiae), UniProt P38959;Q07468;P20795;P12868;Q03308;P27801)", "sequence (P38959 whole entry, chain 1 of 3, the tested form may be a part)": "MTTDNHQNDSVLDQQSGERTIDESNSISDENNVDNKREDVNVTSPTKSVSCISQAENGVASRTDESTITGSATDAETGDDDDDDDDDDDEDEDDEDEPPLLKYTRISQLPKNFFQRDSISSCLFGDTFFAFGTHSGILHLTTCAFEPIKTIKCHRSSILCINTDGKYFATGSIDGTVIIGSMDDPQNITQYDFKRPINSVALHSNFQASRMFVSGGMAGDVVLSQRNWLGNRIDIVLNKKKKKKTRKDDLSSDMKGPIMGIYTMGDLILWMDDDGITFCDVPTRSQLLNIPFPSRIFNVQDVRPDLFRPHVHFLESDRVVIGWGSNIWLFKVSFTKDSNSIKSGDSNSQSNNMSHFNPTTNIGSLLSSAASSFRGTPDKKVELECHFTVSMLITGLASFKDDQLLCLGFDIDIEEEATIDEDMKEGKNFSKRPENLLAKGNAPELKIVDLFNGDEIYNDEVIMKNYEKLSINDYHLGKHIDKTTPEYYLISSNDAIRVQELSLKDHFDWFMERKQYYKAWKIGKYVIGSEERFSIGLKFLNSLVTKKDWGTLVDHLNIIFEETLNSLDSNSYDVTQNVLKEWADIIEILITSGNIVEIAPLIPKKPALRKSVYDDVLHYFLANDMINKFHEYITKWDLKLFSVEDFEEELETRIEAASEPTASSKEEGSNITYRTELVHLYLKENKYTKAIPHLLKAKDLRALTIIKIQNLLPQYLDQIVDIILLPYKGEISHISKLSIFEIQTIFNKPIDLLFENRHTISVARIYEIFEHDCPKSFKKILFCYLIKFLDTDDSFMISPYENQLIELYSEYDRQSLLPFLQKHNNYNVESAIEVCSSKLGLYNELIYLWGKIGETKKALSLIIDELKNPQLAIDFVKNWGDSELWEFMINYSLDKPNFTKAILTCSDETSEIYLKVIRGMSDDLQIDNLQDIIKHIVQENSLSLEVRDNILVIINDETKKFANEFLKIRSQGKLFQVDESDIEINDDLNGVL", "sequence (Q07468 whole entry, chain 2 of 3, the tested form may be a part)": "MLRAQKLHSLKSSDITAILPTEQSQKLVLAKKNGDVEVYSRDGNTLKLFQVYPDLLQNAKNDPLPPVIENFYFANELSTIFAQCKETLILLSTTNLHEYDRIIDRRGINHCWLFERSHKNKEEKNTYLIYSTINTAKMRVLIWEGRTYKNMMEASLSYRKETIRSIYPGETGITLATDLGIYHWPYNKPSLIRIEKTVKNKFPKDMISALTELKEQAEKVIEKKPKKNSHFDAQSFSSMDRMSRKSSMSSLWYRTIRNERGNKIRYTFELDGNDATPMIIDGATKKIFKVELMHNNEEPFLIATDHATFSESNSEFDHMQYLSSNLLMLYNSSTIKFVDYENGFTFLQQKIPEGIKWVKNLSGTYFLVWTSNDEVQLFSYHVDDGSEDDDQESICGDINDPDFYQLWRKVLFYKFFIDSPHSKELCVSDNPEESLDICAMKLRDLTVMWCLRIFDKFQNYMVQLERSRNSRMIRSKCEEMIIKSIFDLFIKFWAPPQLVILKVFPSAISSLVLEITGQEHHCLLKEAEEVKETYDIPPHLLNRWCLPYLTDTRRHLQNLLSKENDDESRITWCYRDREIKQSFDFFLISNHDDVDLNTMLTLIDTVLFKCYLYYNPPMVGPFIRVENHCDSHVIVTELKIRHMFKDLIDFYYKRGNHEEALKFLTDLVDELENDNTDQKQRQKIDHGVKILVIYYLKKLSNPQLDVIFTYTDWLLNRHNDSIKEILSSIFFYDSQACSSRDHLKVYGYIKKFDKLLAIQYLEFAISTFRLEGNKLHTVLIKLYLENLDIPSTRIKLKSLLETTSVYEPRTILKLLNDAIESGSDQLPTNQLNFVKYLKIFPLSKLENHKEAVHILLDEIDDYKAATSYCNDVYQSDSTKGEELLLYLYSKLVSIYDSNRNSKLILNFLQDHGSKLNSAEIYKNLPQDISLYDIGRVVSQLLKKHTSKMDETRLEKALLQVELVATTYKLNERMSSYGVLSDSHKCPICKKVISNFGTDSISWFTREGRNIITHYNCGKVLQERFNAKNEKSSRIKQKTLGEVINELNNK", "sequence (P12868 whole entry, chain 4 of 3, the tested form may be a part)": "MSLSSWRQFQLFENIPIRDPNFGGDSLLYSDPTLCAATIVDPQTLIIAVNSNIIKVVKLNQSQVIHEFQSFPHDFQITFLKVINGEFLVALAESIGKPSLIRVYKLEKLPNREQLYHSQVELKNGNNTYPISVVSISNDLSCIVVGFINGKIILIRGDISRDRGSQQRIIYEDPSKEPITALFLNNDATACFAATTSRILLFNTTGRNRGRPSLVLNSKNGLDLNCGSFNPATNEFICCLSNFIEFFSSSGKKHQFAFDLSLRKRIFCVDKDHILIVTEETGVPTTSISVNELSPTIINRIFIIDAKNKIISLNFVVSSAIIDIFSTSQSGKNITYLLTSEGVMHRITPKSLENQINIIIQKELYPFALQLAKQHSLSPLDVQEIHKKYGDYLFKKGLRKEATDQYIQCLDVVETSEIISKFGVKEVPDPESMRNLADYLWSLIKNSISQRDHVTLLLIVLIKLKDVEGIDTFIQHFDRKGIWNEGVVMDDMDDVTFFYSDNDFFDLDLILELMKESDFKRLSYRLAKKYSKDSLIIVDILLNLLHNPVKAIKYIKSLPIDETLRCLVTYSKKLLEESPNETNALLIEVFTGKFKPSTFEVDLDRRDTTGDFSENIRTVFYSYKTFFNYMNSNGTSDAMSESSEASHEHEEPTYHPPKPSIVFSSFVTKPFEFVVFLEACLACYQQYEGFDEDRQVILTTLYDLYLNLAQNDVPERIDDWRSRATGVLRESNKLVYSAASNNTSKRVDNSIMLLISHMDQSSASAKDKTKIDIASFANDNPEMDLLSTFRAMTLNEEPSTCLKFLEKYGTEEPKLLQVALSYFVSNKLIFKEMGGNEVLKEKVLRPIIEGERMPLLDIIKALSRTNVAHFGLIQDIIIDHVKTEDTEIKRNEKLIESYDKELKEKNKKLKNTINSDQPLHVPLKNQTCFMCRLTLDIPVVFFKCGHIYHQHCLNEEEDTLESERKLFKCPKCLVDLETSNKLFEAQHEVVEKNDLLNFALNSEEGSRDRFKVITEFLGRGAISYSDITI"}, "[4]": {"molecular_target": "T3, Vps33 (individual HOPS subunit, Sec1/Munc18 protein, TAP-purified) (yeast (S. cerevisiae), UniProt P20795 1-691)", "T3 sequence": "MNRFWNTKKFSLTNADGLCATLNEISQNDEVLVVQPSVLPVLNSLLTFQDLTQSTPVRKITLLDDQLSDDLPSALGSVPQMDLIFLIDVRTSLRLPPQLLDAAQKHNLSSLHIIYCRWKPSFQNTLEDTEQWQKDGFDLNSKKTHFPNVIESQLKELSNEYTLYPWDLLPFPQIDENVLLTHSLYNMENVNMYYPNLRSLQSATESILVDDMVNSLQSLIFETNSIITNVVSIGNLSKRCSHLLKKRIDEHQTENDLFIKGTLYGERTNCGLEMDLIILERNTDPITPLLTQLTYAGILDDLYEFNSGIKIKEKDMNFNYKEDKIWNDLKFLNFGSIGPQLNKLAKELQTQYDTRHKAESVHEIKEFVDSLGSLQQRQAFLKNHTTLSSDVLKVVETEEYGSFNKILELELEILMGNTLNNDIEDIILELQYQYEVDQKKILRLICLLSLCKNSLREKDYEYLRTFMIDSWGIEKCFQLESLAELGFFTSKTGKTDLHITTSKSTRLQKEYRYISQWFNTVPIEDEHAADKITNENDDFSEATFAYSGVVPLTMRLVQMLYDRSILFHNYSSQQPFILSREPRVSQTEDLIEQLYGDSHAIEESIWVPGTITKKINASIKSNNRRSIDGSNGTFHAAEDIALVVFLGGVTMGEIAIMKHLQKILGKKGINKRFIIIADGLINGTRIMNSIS"}, "[5]": {"molecular_target": "B1"}, "His-tagged Ykt6 (1-200)": {"molecular_target": "T4, His-tagged Ykt6 (1-200) (S. cerevisiae, UniProt P36015 1-200)", "T4 sequence": "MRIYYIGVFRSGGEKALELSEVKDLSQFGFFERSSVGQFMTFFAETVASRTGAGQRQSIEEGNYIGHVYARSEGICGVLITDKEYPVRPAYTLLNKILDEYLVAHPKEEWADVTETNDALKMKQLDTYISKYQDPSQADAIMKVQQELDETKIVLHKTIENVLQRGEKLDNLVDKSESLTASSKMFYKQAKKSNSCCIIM"}, "[6]": {"molecular_target": "T5, His-tagged Vam3 (1-264, ΔTMD) (S. cerevisiae, UniProt Q12241 1-264)", "T5 sequence": "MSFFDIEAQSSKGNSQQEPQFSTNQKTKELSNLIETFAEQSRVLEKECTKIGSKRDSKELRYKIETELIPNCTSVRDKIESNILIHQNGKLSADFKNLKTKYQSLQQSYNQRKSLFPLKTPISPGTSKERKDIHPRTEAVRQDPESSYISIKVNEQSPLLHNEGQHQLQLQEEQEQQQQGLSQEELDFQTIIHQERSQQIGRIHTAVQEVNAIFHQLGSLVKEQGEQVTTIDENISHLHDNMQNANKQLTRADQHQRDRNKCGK"}, "[7]": {"molecular_target": "His-tagged Vti1 (1-189, ΔTMD) (S. cerevisiae, UniProt Q04338 1-189)"}}, "data": [{"binder": "minimal Q-SNARE complex (GST-Vam7 SD, Vam3ΔN and Vti1) (complex) chain 1: PSTEVTRRAALLRSLLKECDDIGTANIAQDRGRLLGVATSDNSSTTEVQGRTNNDLQQGQMQMVRDQEQELVALHRIIQAQRGLALEMNEELQTQNELLTALEDDVDNTGRRLQIANKKARHFNNSA chain 2: ESSYISIKVNEQSPLLHNEGQHQLQLQEEQEQQQQGLSQEELDFQTIIHQERSQQIGRIHTAVQEVNAIFHQLGSLVKEQGEQVTTIDENISHLHDNMQNANKQLTRADQHQRDRNKCGK chain 3: MSSLLISYESDFKTTLEQAKASLAEAPSQPLSQRNTTLKHVEQQQDELFDLLDQMDVEVNNSIGDASERATYKAKLREWKKTIQSDIKRPLQSLVDSGDRDRLFGDLNASNIDDDQRQQLLSNHAILQKSGDRLKDASRIANETEGIGSQIMMDLRSQRETLENARQTLFQADSYVDKSIKTLKTMTRR", "values": [{"measurement": "binding result", "setting": "[1]", "result": "binds"}, {"measurement": "binding result", "setting": "[2]", "result": "binds"}, {"measurement": "binding result", "setting": "[3]", "result": "binds"}, {"measurement": "binding result", "setting": "[4]", "result": "binds"}]}, {"binder": "His-tagged Vam3ΔN (145-264, lacking the Habc domain and the TMD) (domain or fragment) ESSYISIKVNEQSPLLHNEGQHQLQLQEEQEQQQQGLSQEELDFQTIIHQERSQQIGRIHTAVQEVNAIFHQLGSLVKEQGEQVTTIDENISHLHDNMQNANKQLTRADQHQRDRNKCGK", "values": [{"measurement": "binding result", "setting": "[5]", "result": "binds"}]}, {"binder": "B1", "values": [{"measurement": "binding result", "setting": "His-tagged Ykt6 (1-200)", "result": "binds"}, {"measurement": "binding result", "setting": "[6]", "result": "binds"}, {"measurement": "binding result", "setting": "[7]", "result": "binds"}]}]}
